Laboratory results reported in the Human Domainome abundance scans (Beltran et al. 2025).
± gives the uncertainty stated by the source.

B1: RanBP-type and C3HC4-type zinc finger-containing protein 1, residues 369 to 411; numbered along this chain, Q9BYM8 (parent)
chain: YHCKTPDCKGWCFFEDDVNEFTCPVCFHVNCLLCKAIHEQMNC
B2: Homeobox expressed in ES cells 1, residues 110 to 165; numbered along this chain, Q9UBX0 (parent)
chain: RPRTAFTQNQIEVLENVFRVNCYPGIDIREDLAQKLNLEEDRIQIWFQNRRAKLKR

Variants of: B1
Assay: abundance fitness (aPCA) (normalised: wild type 0, dead -1); higher = more abundant; growth selection in yeast, the domain comes from the species named
Conditions: Homo sapiens

Variant	abundance fitness
Y1F	-0.282 ± 0.2
Y1S	-0.409 ± 0.085
Y1L	-0.453 ± 0.14
Y1A	-0.18 ± 0.093
Y1K	-0.336 ± 0.095
Y1H	-0.256 ± 0.12
Y1D	0.004 ± 0.33
Y1N	-0.408 ± 0.069
Y1M	0.028 ± 0.099
Y1T	-0.24 ± 0.06
Y1I	0.051 ± 0.2
Y1G	-0.331 ± 0.049
Y1C	-0.509 ± 0.11

Variants of: B2
Assay: as above
Conditions: Homo sapiens

Variant	abundance fitness
R51A	-0.424 ± 0.17
R51G	-0.671 ± 0.18
R51K	-0.577 ± 0.27
R51V	-0.243 ± 0.079
R51S	-0.491 ± 0.27
R51E	-0.632 ± 0.12
R51T	-0.301 ± 0.23
R51Q	-0.43 ± 0.3
R51C	-0.368 ± 0.12
R51Y	-0.782 ± 0.16
R51I	-0.336 ± 0.31
R51L	-0.752 ± 0.24
R51N	-0.131 ± 0.19
R51D	0.168 ± 0.45
R51M	-0.109 ± 0.12
L54F	0.312 ± 0.17
L54C	-0.031 ± 0.11
L54D	-0.071 ± 0.13
L54I	0.074 ± 0.08
L54A	-0.34 ± 0.12
L54K	-0.119 ± 0.14
L54W	-0.205 ± 0.084
L54E	0.203 ± 0.085
L54V	-0.082 ± 0.13

Variant	abundance fitness
L54M	-0.195 ± 0.22
L54P	0.222 ± 0.19
L54Q	0.01 ± 0.16
L54G	0.319 ± 0.1
L54R	-0.596 ± 0.079
K55L	-0.583 ± 0.23
K55A	-0.451 ± 0.24
K55V	-0.672 ± 0.37
K55F	-0.349 ± 0.46
K55Y	-0.479 ± 0.35
K55N	-0.068 ± 0.31
K55H	-0.27 ± 0.12
K55G	-0.302 ± 0.21
K55M	-0.181 ± 0.078
K55S	-0.399 ± 0.12
K55D	-0.419 ± 0.37
K55R	-0.369 ± 0.089
K55P	-0.042 ± 0.19
K55I	0.143 ± 0.15
K55E	0.334 ± 0.17
A52F	-0.361 ± 0.15
A52E	0.059 ± 0.19
A52C	-0.143 ± 0.17
A52D	-0.044 ± 0.22

Variant	abundance fitness
A52H	-0.05 ± 0.21
A52R	-0.194 ± 0.14
A52N	-0.03 ± 0.17
A52G	-0.205 ± 0.12
A52W	-0.505 ± 0.15
A52M	-0.269 ± 0.26
A52S	-0.104 ± 0.19
A52K	-0.064 ± 0.086
A52T	0.172 ± 0.13
A52L	-0.499 ± 0.25
A52V	-0.348 ± 0.076
W46F	-0.547 ± 0.33
W46G	-1.07 ± 0.18
W46P	-0.361 ± 0.26
W46E	-0.751 ± 0.31
W46K	-0.925 ± 0.44
W46V	-0.928 ± 0.29
W46S	-0.595 ± 0.26
W46D	-0.428 ± 0.4
W46A	-0.693 ± 0.1
W46C	-1.15 ± 0.25
W46T	-0.721 ± 0.36
